The text below walks through data of patent US20180369374A1 (published 2018).

Test [1] addresses T1, OX40R on mouse CD4+ T-cells (mouse, UniProt P47741 20-272).
T1 sequence (looked up): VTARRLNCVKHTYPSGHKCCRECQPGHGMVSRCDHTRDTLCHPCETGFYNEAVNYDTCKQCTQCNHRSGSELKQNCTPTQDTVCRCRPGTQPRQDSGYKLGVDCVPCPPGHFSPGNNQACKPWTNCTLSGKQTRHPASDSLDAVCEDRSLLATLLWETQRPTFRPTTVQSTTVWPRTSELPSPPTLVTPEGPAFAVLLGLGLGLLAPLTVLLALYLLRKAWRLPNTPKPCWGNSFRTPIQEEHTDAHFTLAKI
Description: cell-based or functional assay.

Test [2] deals with T2, mCTLA-4-His (Life Technologies) (mouse, UniProt P09793 36-162, limits assumed).
T2 construct: Bought reagent coated on ELISA plates; also called CTLA-4-coated plates; not shown: His tag
Description: ELISA, HeLa supernatant on mCTLA-4-His-coated plates, HRP-goat anti-mouse IgG Fc detection. How it is done: The following mRNAs encoding anti-CTLA-4 antibody heavy and light chains (HC and LC mRNAs) were designed and assayed for expression by measuring both CTLA-4-bound antibody and total IgG produced (FIG. 1): (1) 9D9 VH:mIgG2a (IgG2a^a allele) plus 9D9 VL:mIgGk; and (2) 9D9 VH:mIgG2b plus 9D9 VL:mIgGk. HeLa cells were transfected in 6-well plates with mRNA formulated in Lipofectamine 2000. Cell supernatants were harvested at 18 hours post transfection. Supernatants were assayed for binding to CTLA-4-coated plates (mCTLA-4-His (Life Technologies)) and detection was with HRP-Goat anti-mouse IgG Fc, 1:10000 (JIR). Purified 9D9 antibody (BioXcell) was used for the standard curve in the CTLA-4-binding ELISA. The Mouse IgG total ELISA Ready-SET-Go® assay (eBioscience) was used for quantitating total mouse IgG, with a mouse IgG internal standard.
In general terms: An ELISA detects its analyte on a solid surface through an enzyme-linked reagent.

B1: murine OX40L polypeptide expressed from mOX40L_miR122 on B16F10 cells (ligand)
chain: MEGEGVQPLDENLENGSRPRFKWKKTLRLVVSGIKGAGMLLCFIYVCLQLSSSPAKDPPIQRLRGAVTRCEDGQLFISSYKNEYQTMEVQNNSVVIKCDGLYIIYLKGSFFQEVKIDLHFREDHNPISIPMLNDGRRIVFTVVASLAFKDKVYLTVNAPDTLCEHLQINDGELIVVQLTPGYCAPEGSYHSTVNQVPL
As for B1, the “mouse IL-2 production by CD4+ T-cells co-cultured with OX40L-expressing B16F10 cells (IL-2 ELISA), against mock-treated or non-translated mRNA control” value in test [1] is ~2 fold.

B2: 9D9 IgG2a antibody (9D9 VH:mIgG2a (IgG2a^a allele) plus 9D9 VL:mIgGk), mRNA-encoded (antibody)
heavy: EAKLQESGPVLVKPGASVKMSCKASGYTFTDYYMNWVKQSHGKSLEWIGVINPYNGDTSYNQKFKGKATLTVDKSSSTAYMELNSLTSEDSAVYYCARYYGSWFAYWGQGTLITVSTAKTTAPSVYPLAPVCGDTTGSSVTLGCLVKGYFPEPVTLTWNSGSLSSGVHTFPAVLQSDLYTLSSSVTVTSSTWPSQSITCNVAHPASSTKVDKKIEPRGPTIKPCPPCKCPAPNLLGGPSVFIFPPKIKDVLMISLSPIVTCVVVDVSEDDPDVQISWFVNNVEVHTAQTQTHREDYNSTLRVVSALPIQHQDWMSGKEFKCKVNNKDLPAPIERTISKPKGSVRAPQVYVLPPPEEEMTKKQVTLTCMVTDFMPEDIYVEWTNNGKTELNYKNTEPVLDSDGSYFMYSKLRVEKKNWVERNSYSCSVVHEGLHNHHTTKSFSRTPGK
light: DIVMTQTTLSLPVSLGDQASISCRSSQSIVHSNGNTYLEWYLQKPGQSPKLLIYKVSNRFSGVPDRFSGSGSGTDFTLKISRVEAEDLGVYYCFQGSHVPYTFGGGTKLEIKRADAAPTVSIFPPSSEQLTSGGASVVCFLNNFYPKDINVKWKIDGSERQNGVLNSWTDQDSKDSTYSMSSTLTLTKDEYERHNSYTCEATHKTSTSPIVKSFNRNEC
notes: Full heavy and light chains expressed from mRNA in HeLa cells, tested as cell supernatant; The entries are whole ORFs and may include a signal peptide; also called HC-2Aa:LC; 9D9 2a
Consider B2, for which the binding result in test [2] is recorded as “binds”.

B3: 9D9 IgG2b antibody (9D9 VH:mIgG2b plus 9D9 VL:mIgGk), mRNA-encoded (antibody)
heavy: EAKLQESGPVLVKPGASVKMSCKASGYTFTDYYMNWVKQSHGKSLEWIGVINPYNGDTSYNQKFKGKATLTVDKSSSTAYMELNSLTSEDSAVYYCARYYGSWFAYWGQGTLITVSTAKTTPPSVYPLAPGCGDTTGSSVTLGCLVKGYFPESVTVTWNSGSLSSSVHTFPALLQSGLYTMSSSVTVPSSTWPSQTVTCSVAHPASSTTVDKKLEPSGPISTINPCPPCKECHKCPAPNLEGGPSVFIFPPNIKDVLMISLTPKVTCVVVDVSEDDPDVQISWFVNNVEVHTAQTQTHREDYNSTIRVVSTLPIQHQDWMSGKEFKCKVNNKDLPSPIERTISKIKGLVRAPQVYILPPPAEQLSRKDVSLTCLVVGFNPGDISVEWTSNGHTEENYKDTAPVLDSDGSYFIYSKLNMKTSKWEKTDSFSCNVRHEGLKNYYLKKTISRSPGK
light: DIVMTQTTLSLPVSLGDQASISCRSSQSIVHSNGNTYLEWYLQKPGQSPKLLIYKVSNRFSGVPDRFSGSGSGTDFTLKISRVEAEDLGVYYCFQGSHVPYTFGGGTKLEIKRADAAPTVSIFPPSSEQLTSGGASVVCFLNNFYPKDINVKWKIDGSERQNGVLNSWTDQDSKDSTYSMSSTLTLTKDEYERHNSYTCEATHKTSTSPIVKSFNRNEC
notes: Full heavy and light chains expressed from mRNA in HeLa cells, tested as cell supernatant; The entries are whole ORFs and may include a signal peptide; also called HC-2B:LC; 9D9 2b
Turning to B3, the binding result in test [2] is on record as “binds”.
